The values that follow come from US20240270825A1 (CENTIVAX, published 2024).

The target of assay [1] is T1, MERS Receptor Binding Domain (RBD) protein (Middle East Respiratory Syndrome (MERS) …, UniProt K9N5Q8 367-606).
T1 construct: also called Middle East Respiratory Syndrome (MERS) virus
T1 sequence: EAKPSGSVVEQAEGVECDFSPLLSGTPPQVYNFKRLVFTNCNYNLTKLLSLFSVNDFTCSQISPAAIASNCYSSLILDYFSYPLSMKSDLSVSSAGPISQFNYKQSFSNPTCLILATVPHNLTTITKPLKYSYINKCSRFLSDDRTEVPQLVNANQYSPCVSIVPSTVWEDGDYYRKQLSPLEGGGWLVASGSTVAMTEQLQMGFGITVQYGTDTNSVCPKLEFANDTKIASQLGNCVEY
In words: SPR Carterra LSA, scFv captured via anti-V5.

Assay [2] deals with T2, SARS-CoV-1 Receptor Binding Domain (RBD) protein (SARS-CoV-1, UniProt P59594 306-527).
T2 construct: also called SARS1
In words: SPR Carterra LSA, scFv captured via anti-V5.

Assay [3] deals with SARS-CoV-2 Receptor Binding Domain (RBD) protein (SARS-CoV-2, UniProt P0DTC2 319-541). Nature of the assay: SPR Carterra LSA, scFv captured via anti-V5, 1:1 fit.

B1: COVID19_P21_F08 (scFv, V domains shown)
VH: QVQLVQSGAEVKKPGSSVKVSCKASGGTFSTYAFNWVRQAPGQGLEWMGVINTGGGSVTYAQKFQGRVTITADESTSTAYMELSSLRSEDTAVYYCAGGSGISTPGAVWGQGTLVTVSS
VL: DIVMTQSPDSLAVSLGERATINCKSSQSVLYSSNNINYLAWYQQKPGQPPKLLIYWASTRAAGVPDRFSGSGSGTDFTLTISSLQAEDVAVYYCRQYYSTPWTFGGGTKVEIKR
In the case of B1, the binding result in assay [1] and in assay [2] was “no binding (tested: 300 nM)” throughout.

B2: COVID19_P21_F11 (scFv, V domains shown)
VH: QVQLVQSGAEVKKPGSSVKVSCKASGGTFSSYAISWVRQAPGQGLEWMGIIYPGDSTARYSQKFQGRVTITADESTSTAYMELSSLRSEDTAVYYCAGGSGISTLYDVWGQGTLVTVSS
VL: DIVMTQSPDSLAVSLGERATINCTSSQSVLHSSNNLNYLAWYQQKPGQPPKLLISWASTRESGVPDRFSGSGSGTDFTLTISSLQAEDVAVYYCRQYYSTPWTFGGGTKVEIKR
For B2, the binding result in assay [1] is “no binding (tested: 300 nM)”. In addition, the binding result in assay [2] is on record as “no binding (tested: 300 nM)”. In assay [3], this molecule came in with a Kd of 1.1 nM and a koff of 5.7e-05 s⁻¹.

B3: COVID19_P21_F04 (scFv, V domains shown)
VH: QVQLVQSGAEVKKPGSSVKVSCKASGGTFSSYAISWVRQAPGQGLEWMGQINPSGDSTRYAQKFQGRVTITADESTSTAYMELSSLRSEDTAVYYCAGGSGISTPMDVWGQGTLVTVSS
VL: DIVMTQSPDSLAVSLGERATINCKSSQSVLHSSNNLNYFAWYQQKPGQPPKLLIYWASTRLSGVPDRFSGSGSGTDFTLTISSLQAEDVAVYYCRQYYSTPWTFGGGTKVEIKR
Regarding B3, the binding result in assay [1] and in assay [2] was “no binding (tested: 300 nM)” throughout.

B4: COVID19_P22_B12 (scFv, V domains shown)
VH: QVQLVQSGAEVKKPGSSVKVSCKASGGTLSSYAISWVRQAPGQGLEWMGIIYPGDSETRYSQKFQGRVTITADESTSTAYMELSSLRSEDTAVYYCAGGSGISTPRSVWGQGTLVTVSS
VL: DIVMTQSPDSLAVSLGERATINCKSSRILSYSPDNKNYLAWYQQKPGQPPKLLIYWASTRESGVPDRFSGSGSGTDFTLTISSLQAEDVAVYYCQQSYITPYTFGGGTKVEIKR
With B4, the binding result in assay [1] and in assay [2] was “no binding (tested: 300 nM)” throughout.

B5: COVID19_P21_A12 (scFv, V domains shown)
VH: QVQLVQSGAEVKKPGSSVKVSCKASGGTFSSYAISWVRQAPGQGLEWMGSVIPVFGRPNYAQKFQGRVTITADESTSTAYMELSSLRSEDTAVYYCAGEWGISTPMDVWGQGTLVTVSS
VL: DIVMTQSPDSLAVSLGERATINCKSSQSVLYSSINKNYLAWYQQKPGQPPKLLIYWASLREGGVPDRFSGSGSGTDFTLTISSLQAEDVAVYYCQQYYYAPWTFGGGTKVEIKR
On to B5, for which the binding result in assay [1] and in assay [2] was “no binding (tested: 300 nM)” in each case.

B6: COVID19_P21_B08 (scFv, V domains shown)
VH: QVQLVQSGAEVKKPGSSVKVSCKASGGTFSSYAISWVRQAPGQGLEWMGVINTGGGSVTYAQKFQGRVTITADESTSTAYMELSSLRSEDTAVYYCAGHWGISTPMDVWGQGTLVTVSS
VL: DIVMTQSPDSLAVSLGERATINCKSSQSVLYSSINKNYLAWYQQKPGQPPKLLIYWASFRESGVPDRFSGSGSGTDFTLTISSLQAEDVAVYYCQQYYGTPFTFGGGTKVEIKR
Consider B6, for which the binding result in assay [1] and in assay [2] was “no binding (tested: 300 nM)” each time.
